In patent publication US20200057047A1 (NATIONAL HEALTH RESEARCH INSTITUTES, published 2020):

Columns and labels:
[1] = target: T1, GLK (MAP4K3) (transfected; construct of the ALPHA assay with AhR not stated) (UniProt Q8IVH8 1-894, limits assumed); test: ALPHA protein-protein interaction assay
T1 construct: Expression plasmid 'reported previously'
T1 sequence (looked up): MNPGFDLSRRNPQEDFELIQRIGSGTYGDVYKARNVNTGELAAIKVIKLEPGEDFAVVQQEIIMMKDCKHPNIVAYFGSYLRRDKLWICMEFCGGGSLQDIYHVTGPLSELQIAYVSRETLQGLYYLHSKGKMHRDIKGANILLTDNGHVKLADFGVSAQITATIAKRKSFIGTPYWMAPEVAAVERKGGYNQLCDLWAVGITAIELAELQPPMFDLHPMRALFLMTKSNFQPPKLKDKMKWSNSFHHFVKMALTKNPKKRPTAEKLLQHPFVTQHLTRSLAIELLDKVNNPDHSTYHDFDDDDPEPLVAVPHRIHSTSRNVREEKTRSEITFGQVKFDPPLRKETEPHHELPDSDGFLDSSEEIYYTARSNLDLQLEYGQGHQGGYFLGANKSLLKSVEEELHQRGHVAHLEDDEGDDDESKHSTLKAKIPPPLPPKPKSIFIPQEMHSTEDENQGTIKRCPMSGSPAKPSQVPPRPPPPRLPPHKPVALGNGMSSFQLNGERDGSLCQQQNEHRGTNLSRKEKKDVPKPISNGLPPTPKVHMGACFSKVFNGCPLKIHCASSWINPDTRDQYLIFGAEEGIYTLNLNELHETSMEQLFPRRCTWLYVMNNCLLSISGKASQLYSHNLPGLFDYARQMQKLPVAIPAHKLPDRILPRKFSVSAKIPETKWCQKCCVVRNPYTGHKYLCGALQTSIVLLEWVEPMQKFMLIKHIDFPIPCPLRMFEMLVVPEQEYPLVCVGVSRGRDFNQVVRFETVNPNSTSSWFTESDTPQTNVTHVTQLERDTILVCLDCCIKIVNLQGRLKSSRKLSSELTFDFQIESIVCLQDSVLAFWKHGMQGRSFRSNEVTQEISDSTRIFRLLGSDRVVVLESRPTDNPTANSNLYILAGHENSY

HA-tagged AhR = target: T2, HA-tagged AhR (Homo sapiens (Human), UniProt P35869 1-848, limits assumed); test: co-IP, HEK293T cells co-transfected with IKKβ-CFP (FIG. 5I)
T2 construct: also called HA-AhR; purified AhR; not shown: HA tag
T2 sequence: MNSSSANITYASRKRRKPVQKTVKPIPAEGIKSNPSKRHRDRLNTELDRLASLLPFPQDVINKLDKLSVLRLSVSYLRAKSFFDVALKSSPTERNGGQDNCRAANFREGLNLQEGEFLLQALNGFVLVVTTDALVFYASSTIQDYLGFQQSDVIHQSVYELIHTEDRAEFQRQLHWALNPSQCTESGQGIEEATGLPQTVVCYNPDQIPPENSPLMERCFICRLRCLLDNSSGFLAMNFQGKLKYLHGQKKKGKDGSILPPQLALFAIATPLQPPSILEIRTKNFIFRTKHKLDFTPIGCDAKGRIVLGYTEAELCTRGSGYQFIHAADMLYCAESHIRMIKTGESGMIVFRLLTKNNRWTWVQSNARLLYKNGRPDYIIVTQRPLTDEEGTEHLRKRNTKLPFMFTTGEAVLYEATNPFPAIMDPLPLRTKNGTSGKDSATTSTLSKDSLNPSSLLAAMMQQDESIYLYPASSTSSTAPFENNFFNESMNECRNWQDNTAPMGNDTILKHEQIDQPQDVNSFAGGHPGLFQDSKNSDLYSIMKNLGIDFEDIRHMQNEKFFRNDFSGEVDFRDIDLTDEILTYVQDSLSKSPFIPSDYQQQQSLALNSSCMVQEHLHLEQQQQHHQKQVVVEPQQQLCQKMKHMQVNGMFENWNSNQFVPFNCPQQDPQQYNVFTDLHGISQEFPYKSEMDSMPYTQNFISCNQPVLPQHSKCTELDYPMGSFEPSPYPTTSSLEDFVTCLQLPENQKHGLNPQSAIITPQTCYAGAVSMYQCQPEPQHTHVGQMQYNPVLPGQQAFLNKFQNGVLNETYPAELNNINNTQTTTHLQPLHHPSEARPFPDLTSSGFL

[2] = target: IQGAP1, endogenous, lung tissues of mice in the LLC/luc metastatic lung cancer model (mouse, UniProt Q9JKF1 2-1657); test: in situ PLA, lung tissues of the LLC/luc mouse model (FIG. 16H, upper panel)
Chain of IQGAP1, endogenous, lung tissues of mice in the LLC/luc metastatic lung cancer model (Q9JKF1 2-1657 limits assumed): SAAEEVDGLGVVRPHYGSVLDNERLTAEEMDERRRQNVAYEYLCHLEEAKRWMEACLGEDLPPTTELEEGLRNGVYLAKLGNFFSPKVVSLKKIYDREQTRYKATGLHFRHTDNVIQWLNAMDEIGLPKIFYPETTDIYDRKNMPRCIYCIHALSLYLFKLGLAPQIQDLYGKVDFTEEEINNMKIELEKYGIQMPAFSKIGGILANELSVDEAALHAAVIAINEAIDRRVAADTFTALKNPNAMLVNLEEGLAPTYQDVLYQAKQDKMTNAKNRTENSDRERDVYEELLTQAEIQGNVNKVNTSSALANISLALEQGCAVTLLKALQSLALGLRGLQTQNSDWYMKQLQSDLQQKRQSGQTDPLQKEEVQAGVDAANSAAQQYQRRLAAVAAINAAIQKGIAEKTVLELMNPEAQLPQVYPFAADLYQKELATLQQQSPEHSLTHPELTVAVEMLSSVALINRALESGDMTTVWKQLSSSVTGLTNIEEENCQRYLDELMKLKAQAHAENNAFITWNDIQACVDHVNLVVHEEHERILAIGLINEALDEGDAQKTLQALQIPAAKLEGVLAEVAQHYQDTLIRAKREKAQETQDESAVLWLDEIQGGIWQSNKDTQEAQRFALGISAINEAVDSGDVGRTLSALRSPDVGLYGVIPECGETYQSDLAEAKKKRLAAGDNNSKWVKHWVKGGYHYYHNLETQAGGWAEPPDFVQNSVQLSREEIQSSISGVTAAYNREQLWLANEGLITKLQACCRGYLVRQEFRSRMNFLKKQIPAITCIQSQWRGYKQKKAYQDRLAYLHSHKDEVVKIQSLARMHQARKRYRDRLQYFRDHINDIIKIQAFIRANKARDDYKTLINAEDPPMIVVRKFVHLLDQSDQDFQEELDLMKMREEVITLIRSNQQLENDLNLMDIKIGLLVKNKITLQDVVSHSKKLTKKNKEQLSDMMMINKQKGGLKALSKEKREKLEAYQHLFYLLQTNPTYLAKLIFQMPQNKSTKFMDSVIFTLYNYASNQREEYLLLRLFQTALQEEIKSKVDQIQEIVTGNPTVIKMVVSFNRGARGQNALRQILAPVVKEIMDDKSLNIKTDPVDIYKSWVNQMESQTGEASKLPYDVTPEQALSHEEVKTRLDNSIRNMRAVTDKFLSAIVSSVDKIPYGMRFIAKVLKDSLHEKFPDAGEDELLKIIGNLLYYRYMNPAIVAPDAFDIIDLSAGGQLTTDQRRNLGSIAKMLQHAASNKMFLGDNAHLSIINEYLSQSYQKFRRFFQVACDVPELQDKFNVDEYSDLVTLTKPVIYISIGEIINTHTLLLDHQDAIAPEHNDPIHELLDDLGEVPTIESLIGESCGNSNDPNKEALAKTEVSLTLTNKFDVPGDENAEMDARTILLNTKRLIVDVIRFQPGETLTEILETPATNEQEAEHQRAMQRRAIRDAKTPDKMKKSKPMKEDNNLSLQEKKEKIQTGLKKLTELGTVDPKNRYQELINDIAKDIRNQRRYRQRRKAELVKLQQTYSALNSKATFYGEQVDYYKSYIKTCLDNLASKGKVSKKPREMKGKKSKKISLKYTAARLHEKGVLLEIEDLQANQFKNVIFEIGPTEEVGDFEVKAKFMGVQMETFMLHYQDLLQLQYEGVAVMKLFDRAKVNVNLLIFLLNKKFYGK

[3] = target: T3, AhR, endogenous, human peripheral blood T cells (SLE and RA patients) (human, UniProt P35869 11-848, limits assumed); test: in situ PLA, human peripheral blood T cells (FIG. 8C)
T3 sequence (looked up): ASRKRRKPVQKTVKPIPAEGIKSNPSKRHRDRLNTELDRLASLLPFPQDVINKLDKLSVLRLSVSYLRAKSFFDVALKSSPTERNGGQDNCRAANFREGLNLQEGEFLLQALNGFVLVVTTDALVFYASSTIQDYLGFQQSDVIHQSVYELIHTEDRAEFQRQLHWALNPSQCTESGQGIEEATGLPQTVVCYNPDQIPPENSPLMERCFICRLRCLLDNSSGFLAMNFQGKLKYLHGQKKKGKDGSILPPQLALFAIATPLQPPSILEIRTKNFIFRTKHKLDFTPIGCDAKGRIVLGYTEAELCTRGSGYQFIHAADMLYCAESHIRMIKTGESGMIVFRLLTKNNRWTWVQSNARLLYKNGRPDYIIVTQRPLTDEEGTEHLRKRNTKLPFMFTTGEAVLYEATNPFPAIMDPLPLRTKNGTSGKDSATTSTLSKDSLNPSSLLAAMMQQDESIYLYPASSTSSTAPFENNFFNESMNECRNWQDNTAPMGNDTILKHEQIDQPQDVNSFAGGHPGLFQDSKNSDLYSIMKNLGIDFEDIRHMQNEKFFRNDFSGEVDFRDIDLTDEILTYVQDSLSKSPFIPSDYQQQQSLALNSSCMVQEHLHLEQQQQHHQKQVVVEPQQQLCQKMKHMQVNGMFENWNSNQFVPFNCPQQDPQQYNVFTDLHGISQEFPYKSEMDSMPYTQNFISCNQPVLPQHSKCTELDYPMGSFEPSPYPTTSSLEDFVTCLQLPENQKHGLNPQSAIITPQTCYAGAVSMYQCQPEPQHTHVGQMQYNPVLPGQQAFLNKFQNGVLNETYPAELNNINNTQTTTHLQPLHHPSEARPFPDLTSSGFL

[4] = target: IQGAP1, endogenous, human NSCLC tissues (human, UniProt P46940 2-1657); test: in situ PLA with probes for GLK and IQGAP1, human NSCLC tissue sections (FIGS. 21A-B)
Chain of IQGAP1, endogenous, human NSCLC tissues (P46940 2-1657 limits assumed): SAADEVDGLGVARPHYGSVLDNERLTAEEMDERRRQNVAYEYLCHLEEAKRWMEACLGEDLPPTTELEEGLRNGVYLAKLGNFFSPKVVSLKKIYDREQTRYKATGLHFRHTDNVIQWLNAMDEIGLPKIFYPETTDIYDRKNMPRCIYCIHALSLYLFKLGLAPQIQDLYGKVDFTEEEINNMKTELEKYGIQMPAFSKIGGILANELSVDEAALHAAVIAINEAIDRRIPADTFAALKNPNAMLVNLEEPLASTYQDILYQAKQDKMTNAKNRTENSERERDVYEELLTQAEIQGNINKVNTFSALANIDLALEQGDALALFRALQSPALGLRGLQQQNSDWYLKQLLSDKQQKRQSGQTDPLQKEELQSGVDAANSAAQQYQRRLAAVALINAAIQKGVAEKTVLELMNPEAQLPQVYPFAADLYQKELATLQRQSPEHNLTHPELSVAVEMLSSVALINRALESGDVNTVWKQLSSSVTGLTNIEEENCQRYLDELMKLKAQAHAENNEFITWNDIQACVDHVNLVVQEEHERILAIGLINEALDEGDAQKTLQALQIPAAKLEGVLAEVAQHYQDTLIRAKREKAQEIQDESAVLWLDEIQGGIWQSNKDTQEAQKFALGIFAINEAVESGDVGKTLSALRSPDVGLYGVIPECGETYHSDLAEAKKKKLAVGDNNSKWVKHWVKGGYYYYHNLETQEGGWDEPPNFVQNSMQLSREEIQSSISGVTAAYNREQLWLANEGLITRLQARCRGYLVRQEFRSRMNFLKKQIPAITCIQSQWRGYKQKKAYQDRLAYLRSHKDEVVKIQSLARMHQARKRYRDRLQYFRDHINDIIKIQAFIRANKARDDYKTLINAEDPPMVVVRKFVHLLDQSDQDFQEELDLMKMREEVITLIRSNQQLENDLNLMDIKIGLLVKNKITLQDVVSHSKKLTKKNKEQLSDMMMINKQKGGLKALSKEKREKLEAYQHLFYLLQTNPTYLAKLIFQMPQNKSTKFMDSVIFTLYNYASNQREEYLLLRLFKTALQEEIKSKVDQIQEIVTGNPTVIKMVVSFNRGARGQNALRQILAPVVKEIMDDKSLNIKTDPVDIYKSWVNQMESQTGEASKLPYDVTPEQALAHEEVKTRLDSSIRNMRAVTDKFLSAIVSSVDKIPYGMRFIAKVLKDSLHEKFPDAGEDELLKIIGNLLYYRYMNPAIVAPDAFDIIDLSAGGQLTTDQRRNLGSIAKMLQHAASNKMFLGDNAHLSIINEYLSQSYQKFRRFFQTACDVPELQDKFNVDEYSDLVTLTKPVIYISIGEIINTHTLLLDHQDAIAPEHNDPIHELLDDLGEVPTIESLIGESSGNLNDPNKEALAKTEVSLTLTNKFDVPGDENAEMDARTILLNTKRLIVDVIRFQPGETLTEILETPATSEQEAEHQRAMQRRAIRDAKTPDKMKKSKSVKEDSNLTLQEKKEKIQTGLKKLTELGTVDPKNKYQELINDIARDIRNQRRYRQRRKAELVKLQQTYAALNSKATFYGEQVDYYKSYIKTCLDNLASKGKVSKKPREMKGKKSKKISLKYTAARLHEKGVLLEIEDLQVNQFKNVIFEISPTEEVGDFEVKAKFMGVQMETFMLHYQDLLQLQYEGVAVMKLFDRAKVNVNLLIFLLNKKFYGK
Source text: These tissues were subjected to in situ proximity ligation assay (PLA) with a combination of paired PLA probes corresponding to GLK and IQGAP1. […] The few PLA signals in the normal adjacent tissues of NSCLC patients may be metastatic cancer cells migrating from original lesion. […] Next, we studied whether the GLK−IQGAP1 complex could act as a potential prognostic biomarker for NSCLCs. NSCLC (squamous cell carcinoma and adenocarcinoma) patients, whose survival data were available, were divided into four PLA-signal subgroups after cluster analyses. The two subgroups with highest PLA signals contained only one and two patients, respectively, thus, these two subgroups were excluded from further analysis. The remaining two subgroups (n=63) were subjected to Kaplan-Meier survival analysis using the survival data (available from the provider). […] The higher P value (P=0.069) may be due to the exclusion of three data with highest PLA signals. Nevertheless, NSCLC patients with more GLK−IQGAP1 complexes have a lower survival rate than that of the patients with less GLK−IQGAP1 complexes. Because 40% to 60% of NSCLC patients the of cancer recurrence after cancer resection, we studied whether the GLK−IQGAP1 complex is associated with NSCLC metastasis. […]

B1: AhR (transfected; construct of the ALPHA and FRET assays with PKCθ or GLK not stated) (receptor)
chain: T2 sequence
Question: Does B1 bind [1]?
Answer: Result: no binding

B2: Flag-tagged RORγt-S489A mutant (receptor)
chain: DYKDDDDKMRTQIEVIPCKICGDKSSGIHYGVITCEGCKGFFRRSQQCNVAYSCTRQQNCPIDRTSRNRCQHCRLQKCLALGMSRDAVKFGRMSKKQRDSLHAEVQKQLQQQQQQEQVAKTPPAGSRGADTLTYTLGLSDGQLPLGASPDLPEASACPPGLLRASGSGPPYSNTLAKTEVQGASCHLEYSPERGKAEGRDSIYSTDGQLTLGRCGLRFEETRHPELGEPEQGPDSHCIPSFCSAPEVPYASLTDIEYLVQNVCKSFRETCQLRLEDLLRQRTNLFSREEVTSYQRKSMWEMWERCAHHLTEAIQYVVEFAKRLSGFMELCQNDQIILLKAGAMEVVLVRMCRAYNANNHTVFFEGKYGGVELFRALGCSELISSIFDFSHFLSALCFSEDEIALYTALVLINANRPGLQEKRRVEHLQYNLELAFHHHLCKTHRQGLLAKLPPKGKLRSLCSQHVEKLQIFQHLHPIVVQAAFPPLYKELFSTDVEAPEGLSK
Question: Does B2 bind (HA-tagged AhR)?
Answer: Result: no binding

B3: GLK, endogenous, lung tissues of mice in the LLC/luc metastatic lung cancer model (enzyme)
chain: not shown
Question: Does B3 bind [2]?
Answer: Result: binds

B4: RORγt, endogenous, human peripheral blood T cells (SLE and RA patients) (receptor, UniProt P51449-2 1-497, looked up)
chain: MRTQIEVIPCKICGDKSSGIHYGVITCEGCKGFFRRSQRCNAAYSCTRQQNCPIDRTSRNRCQHCRLQKCLALGMSRDAVKFGRMSKKQRDSLHAEVQKQLQQRQQQQQEPVVKTPPAGAQGADTLTYTLGLPDGQLPLGSSPDLPEASACPPGLLKASGSGPSYSNNLAKAGLNGASCHLEYSPERGKAEGRESFYSTGSQLTPDRCGLRFEEHRHPGLGELGQGPDSYGSPSFRSTPEAPYASLTEIEHLVQSVCKSYRETCQLRLEDLLRQRSNIFSREEVTGYQRKSMWEMWERCAHHLTEAIQYVVEFAKRLSGFMELCQNDQIVLLKAGAMEVVLVRMCRAYNADNRTVFFEGKYGGMELFRALGCSELISSIFDFSHSLSALHFSEDEIALYTALVLINAHRPGLQEKRKVEQLQYNLELAFHHHLCKTHRQSILAKLPPKGKLRSLCSQHVERLQIFQHLHPIVVQAAFPPLYKELFSTETESPVGLSK
Question: Does B4 bind [3]?
Answer: Result: binds

B5: GLK, endogenous, human NSCLC tissues (enzyme, UniProt Q8IVH8 1-894, looked up)
chain: T1 sequence (looked up)
Question: Does B5 bind [4]?
Answer: Result: binds
